Here are results for 41 sequences from the nanobody polyreactivity screen of Harvey et al. (2022).

A short description of this data set: yeast display, Sf9 membrane polyspecificity reagent, FACS + sequencing; frameworks hold sequencing errors. The gist of the method: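 A nanobody's polyreactivity label depends on the gate it was sorted from. Yeast display cells were stained with 10% biotinylated, detergent-solubilized Sf9 membrane reagent for 1 hour at 4 °C, enriched on streptavidin microbeads and sorted by FACS. The low and high (top ~1%) gates were set on anti-HA fluorescence for expression and streptavidin fluorescence for reagent binding.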
As for “QVQLVESGGGLVQAGGSLRLSCAASGRTFYKYAMGWYRQAPAKESELVAAISTRGTNTYYADSVKGRFTISRDYAKNTVYLQMKSLKPEDTAVYYCAAVTASPYSHDYWGQGTQVTVSS”, the “polyreactivity (PSR sort gate)” value is given as “high polyreactivity”. “QVQLVESGGGLVQAGGSLRLSCAASGFIFKRYAMGWYRQAPGKEREFVAAISWGGGNTYYADSVKGRFTISRDNAKNTVYLQMNSLKPEDTAVYYCAKVTSALKYGYWGQGTQVTVSS”: the “polyreactivity (PSR sort gate)” value is given as “high polyreactivity”. To “QVQLVESGGGLVQAGGSLRLSCAASGSTFTYNAMGWYRQAPGKERELVASISSGTTTYYADSVKGRFTISRDNAKNTVYLQMNSLKPEDTAVYYCNADYFDYSRPRYDYWGQGTQVTVSS” belongs “low polyreactivity”. To “QVQLEESGGRLVQAGGSLRLSCAASGSTFSNNAMGWYRQAPGKERELVAAIRTSGGRTYYADSVKGRFTISRDNAKHTVYLQMNSLKPEDTAVYYCAKRWVYRYGYEYWGQGTQVTVSS” belongs “high polyreactivity”; to “KVHLVESGGGLVQAGGSLRLSSAAYGRTFYNNAMGWYIQAPGKERELVAAISGRGGSTYYADSLKGRFTISRDNAKNTVYVQMNILKPEDTAVYYCAATVKYSPIYDYWGQGTQVSVSS”, “high polyreactivity”; to “QVQLVVSGGGLVQAGGSLRLSCAASGFIFYRYAMGWYRQAPGKEWELVAAISRSGGTTYYADSVKGRFTISRDNAKNTVYLQKNSLKPEDTAVYYCNVKRGTIGGYYYWGQGTQVTVSS”, “high polyreactivity”.

With “QVQLVESGGGLVQAGGSLRLSCAASGSIFNRYAMGWYRQAPGKERQFVAAITRRGGNTYYADSVKGRFTISRDNAKNTVYLQMNSLKREDTAVYYCAAPFYYPAGLLYYENNYWGQGTQVTVSS”, the “polyreactivity (PSR sort gate)” value was “high polyreactivity”. The result for “QVQLVESGGGLVQAGGSLRLSCAASGRTLRYNTKGWYRQAPGKERELVADISWTGGSTYYADSVKGRFTISRDNAKNTVYLQMNSLKPEDTAVYYCAADEWWYPWYDYWGQGTQVTVSS” reads “high polyreactivity”; that for “QVQLVESWGGLVQAGGSLRLSCAASGRTFKIYTMGWYRQAPGKERELVAAISRGGSTYYADSVKGRFTISRDNAKNTVYLQMNSLKPEDTAVYYCAVDLYYLSSASTRQVRRDYWGQGTQVTVSS”, “high polyreactivity”. Consider “QVQLVESGGGLVQAGGSLRLSCAASGSTFGYYAMGWYRQAPGKERELVATINRSGGSTYYADSVKGRFTISRDNAKYTVYLQMNSLKPEDTAVYYCNKLAYAGFRYIGSGYWGQGTQVTVSS”, for which the “polyreactivity (PSR sort gate)” value is given as “low polyreactivity”. The result for “QVQLVESGGGLVQAGGSLRLSCAASGITFRRYTMGWYIQAPGKERELVATISLSDGNTYYADSVKGRFTISRDNAKNTVYLQMNSLKPEDTAVYYCNARHTWHQTYDYWGQGTQVTVSS” reads “low polyreactivity”; that for “QVQLVESGGGLVQAGGSLRLSCAASGSIFRINTMGWYLQAPGKERELVAAISFSGTRTYYADSVKGRFTISRDNAKNTVYLQMNSLKPEDTAVYYCAAAGRYTYRTLRDYWGQGTQVTVSS”, “high polyreactivity”; that for “QVQLVESGGGLVQAGGSLRLSCAASGSIFGKYAMGWYRQAPGKERELVAAISKRGGSTYYADSVKGRFTISRDNAKNTVYLQMNSLKPEDTAVYYCAATPVYSGPYDYWGQGTQVTVSS”, “high polyreactivity”. The result for “QVQLVESGGGLVQAGGSLRLSCAASGSIFLYNTMGWYRQAPGKERELVAAISFSGVTTYYADSVKGRFTISRDNAKNTVYLQMNSLKPEDTAVYYCNKYLWKFTNSPLGDYYWGQGTQVTVSS” reads “high polyreactivity”; that for “QVQLVESGGGLVQAGGSLRLSCAASGSTFYRYAMGWYRQAPGKEREFVAAISTRGGSTHYADSVKGRFTISRDTAKNTVYLHMNSLKPEDTAVYYCNARGYYSVPSNTGIRYYRFDYWGQGTQVTVSS”, “high polyreactivity”.

In the case of “QVQLVESGGGLVQAGGSLRLSCAASGYTFSSNVMGWYRQAPGKERELVAAISANGARTYYADSVKGRFTISRDNAKNTVYLQMNSLKPEDTAVYYCAADYRWAGRYYYWGQGTQVTVSS”, the “polyreactivity (PSR sort gate)” value was “high polyreactivity”. Regarding “QVQLVESGGGLVQAGGSLRLSCAASGSTFSINAMGWYRQAPGIERELVAAISRSGGSTYYADSVKGRFTISRDNAKNTVYLQMNSLKPEDTAVYYCAADSRYDYEYWGQGTQVTVSS”, the “polyreactivity (PSR sort gate)” value is “high polyreactivity”.

Take “QGQLVESGGGLVQAGGSLRLSCAASGLIFTYYDMGWYRQAPGKERELVAAISRRGTSTYYADSVKGRFTISRDNAKNTVYFQMNSLKPEDTEVYYCAADYYYFDSQQGMDYWGQGTQVTVSS”: the “polyreactivity (PSR sort gate)” value is given as “high polyreactivity”. As to “QVQLVESGGGLVQAGGSLRLSCAASGFISGYYTMRWYRQAPGKERELVAVINSGGSTYYADSVKGRFTISRDNAKNTVYLQMNSLKPEDTAVYYCAKLGGKYSRYYYWGQGTQVTVSS”, the “polyreactivity (PSR sort gate)” value is on record as “low polyreactivity”. The result for “QVQLVESGGGLVQAGGSLRLSCAASGGTFGTYAMGWYRQAPGKERELVAAITRSGGSTYADSVKGRFTISRDNAKNTVYLQMNSMKPEDTAVYYCNTRTTWRRYVVNGYDYWGQGTQVTVSS” reads “low polyreactivity”; that for “QVQLVESGGGLVQAGGSLRISCAASGRIFQHYAMGWYRQAPGKERELVAAISWRGGSTYYADSVKGRFTISRDNAKNTVFLLMNSLKPEDTAVYYCAAGYRGRIPGFDYWGQGTQVTVSS”, “high polyreactivity”. In the case of “QVQLVESGGGLVQAGGSLRLSCAASGSIFNANTMGWYRQAPGKERELVAVITSGGSTYYADSVKGRFTISRDNAKNTVYLQMNSLKPEDTAVYYCAKDPGPYDYDYWGQGTQVTVSS”, the “polyreactivity (PSR sort gate)” value was “low polyreactivity”. In the case of “QDQLVESGGGLVQAGGSLRLSCAASGSIFRYYVRGWYREAPGKERELVAAISKSGGSTYYADSVKGRFTISRDNAKNTVYLQMNSLKPEDTAVYYCAAGNTRGGDFNYWGQGTQVTVSS”, the “polyreactivity (PSR sort gate)” value is on record as “high polyreactivity”.

Take “QVQLVESAGGLVQAGGSLRISCAASGRNFSTNAMGWYRQAPGKEMELVAAITSRGGSTYYADSVKGRFTISRDNAKNTVYLQMNSLIPEDPAVYYCAVDPLYYKTHYGTLGYYYWGQGTQVTVSS”: the “polyreactivity (PSR sort gate)” value is recorded as “low polyreactivity”. In the case of “QVQLVESGGGLVQAGGSLRLSCAASGRIFYGYAMGWYRQAPGKERELVAAITRSSSTYYADSVKGRFTISRDNAKNTVYLQMNSLKPEDTAVYYCNARVWAKYDYWGQGTQVTVSS”, the “polyreactivity (PSR sort gate)” value is given as “high polyreactivity”.

Turning to “QVQLVESGGGLVQAGGSLRLSCAASGSIFPYYTMGWYRQAPGKERELVAAISGSGTSTYYADSVKGRFTISRDNAKNTVYLQMNSLKPEDTAVYYCAKRFRYGYVNYYYWGQGTQVTVSS”, the “polyreactivity (PSR sort gate)” value was “low polyreactivity”. With “QVQLVESGGGLVQAGGSLRLSCAASASTFLSYAMGWYRQAPGKERELVAAITSRGGSTYYADSVKGRFTISRDIAKNTVYLQMNSLKPEDTAVYYCATRLGYGDSKVRRPYSRFYYWGQGTQVTVSS”, the “polyreactivity (PSR sort gate)” value was “high polyreactivity”. To “QVQVVESGGGLVNAAGSLRLSCAPSVSTSKWYTMGWDRQAPGKERELVAAITGSGGSTFYADSVKGRFTISRDNAKNTVYLQMHSLKQEDTAVYYCAADVYGGGVSFRFRYDSWGQGTQVTVSS” belongs “low polyreactivity”; to “QVQLVESGGGLVQAGGSLRLSCAASGSTFDGNVMGWYRQAPGKERELVADIDSGGSTNYADSVKGRFTISRDNAKNTVYLQMNSLKPEDTAVYYCKAEWDDSFIRWFRYRGNYWGQGTQVTVSS”, “low polyreactivity”; to “QVQLVESGGGLVQAGGSLRLSCAASGRIFKPYALGWYRPAPGKERELVAALSWTGGRTRYADSVKGRFTISRDNAMNTVYLQMNSLKPEDTAVYYCAAYAIVRSYFIYDYWGQGTQVTVSS”, “high polyreactivity”.

As to “QVQLVASGGGLVQAGGSLRLSCAASGFTFYYYAMGWYRKAPGKERELVAGISGRGGTTYYADSVKGRFTISRDNAKNTFYLQLNSLKPEDTAVYDCAARKVRARSKFEYWGQGNQVTVSS”, the “polyreactivity (PSR sort gate)” value is reported as “high polyreactivity”.

On to “QVLLQESGGALVQAGGSLRLSCAASGTISTDIRMGWYRLAPGKEPEFVASIDGCSTTYYADSVKVRFTISRDNEKNTVYLQMNSLKPEDTAMYYCAAREATEFYLYYWGQGTQVTVSS”, for which the “polyreactivity (PSR sort gate)” value is “low polyreactivity”.

For the sequence “QVQLQESGGGLVQAGGSLRLSCAASGTIFRFRYMGWHRQAPGKERELVAGINGGTTTYYADSVIGRFTISRDNAINTVYLQMNSLKPDDTAVYNCAAGASRLTYYDYWGQGTQVTVSS”, the “polyreactivity (PSR sort gate)” value was “low polyreactivity”.

Take “QVQLVESGGGLVQSGGSLRLICAASGSTFGRYPMGWYRQAPGKERELVARISSGGSTTYADSVKGRFTISRDNAKNTVYFLRNSLKTEETAVYYSAADTPYWRYDYWGQGTQVTVSS”: the “polyreactivity (PSR sort gate)” value is on record as “high polyreactivity”. Turning to “QVQLVESGGGIVQAGGSLRLSCAASGGTFPRYAKGWYRQAPGKEREFVAAISGSGGSTYYADSVKGRFTISRDNAKNTVLLQMNSLKPEDTAVYYCNKVPVYTPSYYWGQGSQVTVSS”, the “polyreactivity (PSR sort gate)” value is on record as “low polyreactivity”. For the sequence “QVQLVESGGGLLQAGGSLRLSCAASGSIFYRYAMGWYRQAPWKERELVAAISRSGASTYYADSVKGRFTISRDNAKNTVYLQMNSLKPEDTAVYYCAAYFATSRLPVRYDYWGQGTQVTVSS”, the “polyreactivity (PSR sort gate)” value was “high polyreactivity”. The result for “QVQLVESGGGLVQAGGSLRLSCAASGRTIGAYAMGWYRQAPGKEREFVAAITFGGGPTYYADSVKGRFTISRDNAKNTVYLQMNSLKPEDTAVYYCAKRIDLSFPYARYDYWGQGTQVTVSS” reads “low polyreactivity”; that for “QVQLKESCGGLVQAGGSLRLSCAASGTITYAPHKGWYRQAPGKERELVAGITIGGTTYYADSVKGRFTISRDNAKNTVYLQMNSLSPGDTAVYYCAAHSEQYTPFYYWGQGTQVTVSS”, “low polyreactivity”. The result for “QVQLVESGGGLVQAGGSLRLSCAASGFIFYLYAMGWYRPAPGKERELVAAISRRGGSTYYADSVKGRFTISRDNAKNTVYLQMNSLKPEDTAVYYCAAYGDDGRDYWGQGTQVTVSS” reads “high polyreactivity”; that for “QVQLVESGGGLVQAGGSLRLSCAATGSTFTAYAMAWYRQAPGKESELVAAIRRIGGDTYYADSVKGRFTISRDNAKNTVYLQMNSLKPEDSAVYYCAAFRWRSPQYWYHSMDHWGQGSQVTVSS”, “low polyreactivity”; that for “QVQLVESGGGLVQAGGSLRLSCAASGRIFGLYTIGWYRQAPGKDREFVAGITYSAGRTYYADSVKGRFPISRDNAKNTVYLQMNSLKPEDTAVYYCAARIYSKFTSYGILDSWGQGTQVTVSS”, “high polyreactivity”.
